Key:
[1] = substrate: NC(=O)c1ccc[n+]([C@@H]2O[C@H](COP(=O)(O)O)[C@@H](O)[C@H]2O)c1; test: purified protein; assay type: biochemical, Agrobacterium fabrum; conditions: 50 mM sodium phosphate pH 7.5, 37 °C
[2] = target: the molecule itself; test: SEC; gel filtration on Superdex 200 10/300 GL of the purified enzyme; about 41 kDa against about 19 kDa by SDS-PAGE

Row | Protein | Km [1] [µM] | kcat [1] [s⁻¹] | kcat/Km [1] [M⁻¹ s⁻¹] | stoichiometry N [2]
1 | AtCinA (NMN deamidase) (Agrobacterium fabrum str. C58) (protein, full length (169 residues, synthetic 510 bp gene), C-terminal His tag (pET24b), E. coli Rosetta 2(DE3); about 19 kDa subunit, 41 kDa homodimer) MSLFPGDIEELARRIITDFTPLGLMVSTAESCTGGLIAGALTEIAGSSAVVDRGFVTYTNDAKRDMLGVGTETLTTFGAVSRQTALQMAHGALYRSRANFAVAVTGIAGPGGGSAEKPVGLVHLATKARNGNVLHHEMRYGDIGRTEIRLATVRTALEMLIALNQAGSV | 24 ± 2 | 8.7 ± 0.2 | 362000 | –
2 | Agrobacterium tumefaciens nicotinamide mononucleotide (NMN) deamidase (enzyme, NMN deamidase CinA of Agrobacterium tumefaciens, UniProt A9CJ26, 169 amino acids; 510 bp synthetic gene cloned between NheI and XhoI of pET24b; Cloning at the NheI and XhoI sites may add a few vector residues; also called AtCinA; CinA) MSLFPGDIEELARRIITDFTPLGLMVSTAESCTGGLIAGALTEIAGSSAVVDRGFVTYTNDAKRDMLGVGTETLTTFGAVSRQTALQMAHGALYRSRANFAVAVTGIAGPGGGSAEKPVGLVHLATKARNGNVLHHEMRYGDIGRTEIRLATVRTALEMLIALNQAGSV | – | – | – | 2
